Source: patent publication US12534531 (MacroGenics, dated 2026)
Numbering of substitutions follows the chain as printed. Blank lines part the entries; values can stand above or below the binder they belong to.

Legend:
[1] = molecular target: T1, PD-1 on the surface of CD4+ and CD8+ T cells of cynomolgus monkeys (cynomolgus monkey, UniProt B0LAJ3 25-288); assay: flow cytometry competition with labeled hPD-1 mAb 7 (1.2) IgG4 (P) on blood of cynomolgus monkeys given 10 mg/kg
T1 construct: In vivo occupancy read by flow cytometry; also called PD-1+/CD4+ and PD-1+/CD8+ cells

[2] = molecular target: T2, soluble cynomolgus monkey PD-1 (scyno PD-1 hFc) cleaved to remove Fc portion (cynomolgus monkey, UniProt B0LAJ3 25-170); assay: Biacore, mAb captured on F(ab)2 goat anti-human Fc, analyte scyno PD-1 hFc cleaved of Fc
[3] = molecular target: T3, soluble human PD-1 (the extracellular domain of human PD-1 fused to a His tag) (human, UniProt Q15116 25-170); assay: ELISA: shPD-1 His coated at 1 ug/ml, goat anti-mouse (H+L)-HRP, RLU
T3 construct: also called shPD-1 His; shPD-1-His; not shown: His tag

[4] = molecular target: T4, soluble cynomolgus monkey PD-1 (the extracellular domain of cynomolgus monkey PD-1 fused to a human Fc Region) (cynomolgus monkey, UniProt B0LAJ3 25-170); assay: ELISA: scyno-PD-1-TEV-hFc coated at 1 ug/ml, goat anti-mouse (H+L) detection, RLU
T4 construct: also called scyno-PD1 Fc; scynoPD-1-hFc; not shown: Human Fc Region and any linker or cleavage site between the extracellular domain and the Fc

[5] = molecular target: T3, soluble human PD-1 (the extracellular …); assay: Biacore, mAb captured on Protein A, analyte shPD-1 His
[6] = molecular target: T2, soluble cynomolgus monkey PD-1 (scyno …); assay: Biacore, mAb captured on Protein A, analyte scyno PD-1 hFc cleaved of Fc
[7] = molecular target: T3, soluble human PD-1 (the extracellular …); assay: ELISA: shPD-1 His coated at 0.5 ug/ml, goat anti-mouse (H+L)-HRP, RLU
[8] = molecular target: T4, soluble cynomolgus monkey PD-1 (the …); assay: ELISA: scyno-PD-1-TEV-Fc coated at 0.5 ug/ml, goat anti-mouse (H+L)-HRP, RLU
[9] = molecular target: T5, human PD-1 expressed on the surface of cells (NSO cells expressing human PD-1; MNFAT-luc2/PD-1 Jurkat cells) (human, UniProt Q15116 21-288); assay: FACS: biotinylated sPD-L2 on NSO cells expressing human PD-1, streptavidin-PE, MFI
T5 construct: also called cell surface PD-1; PDCD1 transfected NSO cells expressing PD-1

[10] = molecular target: T5, human PD-1 expressed on the surface of …; assay: FACS blocking on NSO cells expressing human PD-1, 1:4 dilutions, MFI; blocked ligand: biotinylated sPD-L1, streptavidin-PE
[11] = molecular target: T5, human PD-1 expressed on the surface of …; assay: FACS blocking on NSO cells expressing human PD-1, 1:4 dilutions, MFI; blocked ligand: biotinylated sPD-L2, streptavidin-PE
[12] = molecular target: T5, human PD-1 expressed on the surface of …; assay: FACS saturation binding to NSO cells expressing PD-1; SM; SD 0.3958
[13] = molecular target: T3, soluble human PD-1 (the extracellular …); assay: Biacore, mAb captured on F(ab)2 goat anti-human Fc, analyte shPD-1 His
[14] = molecular target: T5, human PD-1 expressed on the surface of …; assay: FACS: inhibition of sPD-L1 binding to PD-1 on NSO cells; SM; SD 0.2337
[15] = molecular target: T5, human PD-1 expressed on the surface of …; assay: FACS: inhibition of sPD-L2 binding to PD-1 on NSO cells; SM; SD 0.2893
[16] = molecular target: T5, human PD-1 expressed on the surface of …; assay: FACS saturation binding on NSO cells expressing human PD-1, goat anti-human-APC, MFI, 1:4 dilutions
[17] = molecular target: T5, human PD-1 expressed on the surface of …; assay: FACS: inhibition of sPD-L1 binding to PD-1 on NSO cells; SM; SD 0.1668
[18] = molecular target: T5, human PD-1 expressed on the surface of …; assay: FACS saturation binding to NSO cells expressing PD-1; SM; SD 0.8112
[19] = molecular target: T5, human PD-1 expressed on the surface of …; assay: FACS: inhibition of sPD-L2 binding to PD-1 on NSO cells; SM; SD 0.2563

B1: PD-1 mAb B IgG4 (P) (antibody, V domains shown)
VH: QVQLVQSGVEVKKPGASVKVSCKASGYTFTNYYMYWVRQAPGQGLEWMGGINPSNGGTNFNEKFKNRVTLTTDSSTTTAYMELKSLQFDDTAVYYCARRDYRFDMGFDYWGQGTTVTVSS
VL: EIVLTQSPATLSLSPGERATLSCRASKGVSTSGYSYLHWYQQKPGQAPRLLIYLASYLESGVPARFSGSGSGTDFTLTISSLEPEDFAVYYCQHSRDLPLTFGGGTKVEIK
- PD-1 binding on CD4+ and CD8+ T cells (% bound, in vivo) [1]: ≥ 80%
- Kd [2]: 4 nM

B2: PD-1 mAb 9 (antibody, V domains shown)
VH: EVMLVESGGGLVKPGGSLKLSCAASGFTFSSYLVSWVRQTPEKRLEWVATISGGGGNTYYSDSVKGRFTISRDNAKNTLYLQISSLRSEDTALYYCARYGFDGAWFAYWGQGTLVTVSS
VL: DIQMTQSPASLSASVGDIVTITCRASENIYSYLAWYQQKQEKSPQLLVYNAKTLAAGVPSRFSGSGSGTQFSLTINSLQPEDFGNYYCQHHYAVPWTFGGGTRLEIT
notes: Murine monoclonal antibody
- EC50 (read off the curve) [3]: ~0.4 nM
- binding result [4]: binds
- Kd [5]: 9.8 nM
- Kd [6]: 72.7 nM

B3: PD-1 mAb A IgG4 (P) (antibody, V domains shown)
VH: QVQLVESGGGVVQPGRSLRLDCKASGITFSNSGMHWVRQAPGKGLEWVAVIWYDGSKRYYADSVKGRFTISRDNSKNTLFLQMNSLRAEDTAVYYCATNDDYWGQGTLVTVSS
VL: EIVLTQSPATLSLSPGERATLSCRASQSVSSYLAWYQQKPGQAPRLLIYDASNRATGIPARFSGSGSGTDFTLTISSLEPEDFAVYYCQQSSNWPRTFGQGTKVEIK
- PD-1 binding on CD4+ and CD8+ T cells (% bound, in vivo) [1]: ≥ 80%
- Kd [2]: 6 nM

B4: PD-1 mAb 6 (antibody, V domains shown)
VH: EVKLVESGGGLVNPGGSLKLSCAASGFTFSSYGMSWVRQTPEKRLEWVATISGGGSDTYYPDSVKGRFTISRDNAKNNLYLQMSSLRSEDTALYYCARQKATTWFAYWGQGTLVTVST
VL: not shown
notes: Murine monoclonal antibody
- EC50 (read off the curve) [7]: ~0.3 nM
- binding result [8]: binds

B8: PD-1 mAb 5 (antibody, V domains shown)
VH: QVQLQQPGVELVRPGASVKLSCKASGYSFTAYWMNWMKQRPGQGLEWIGVIHPSDSETWLNQKFKDKATLTVDKSSSTAYMQLISPTSEDSAVYYCAREHYGSSPFAYWGQGTLVTVSA
VL: not shown
notes: Murine monoclonal antibody
- EC50 (read off the curve) [7]: ~0.3 nM
- binding result [8]: binds

B9: PD-1 mAb 7 (antibody, V domains shown)
VH: B8 VH with V9A, A31S, M37V, N61D, S77T, S103T, A119S
VL: not shown
notes: Murine monoclonal antibody
- EC50 (read off the curve) [7]: ~0.2 nM
- EC50 (read off the curve) [8]: ~0.3 nM
- Kd [5]: 1.3 nM
- Kd [6]: 3.5 nM

Now from value to binder:

- binding result [9]: binds
B5: biotinylated-soluble human PD-L2-muIgFc fusion protein (Ancell Cat #573-030) (Fc fusion, UniProt Q9BQ51 20-220, looked up)
chain: LFTVTVPKELYIIEHGSNVTLECNFDTGSHVNLGAITASLQKVENDTSPHRERATLLEEQLPLGKASFHIPQVQVRDEGQYQCIIIYGVAWDYKYLTLKVKASYRKINTHILKVPETDEVELTCQATGYPLAEVSWPNVSVPANTSHSRTPEGLYQVTSVLRLKPPPGRNFSCVFWNTHVRELTLASIDLQSQMEPRTHPT
modifications: biotinylated (site not stated)
notes: Bought reagent; also called shPD-L2; sPD-L2; not shown: murine Ig Fc

- IC50 (read off the curve) [10]: ~0.01 ug/test
- IC50 (read off the curve) [11]: ~0.02 ug/test
- EC50 [12]: 1090 nM
- Kd [2]: 4.9 nM
- Kd [13]: 1.5 nM
- IC50 [14]: 732 nM
- IC50 [15]: 977 nM
- EC50 (read off the curve) [16]: ~0.08 µg/mL
B6: hPD-1 mAb 7 (1.2) IgG1 (AA) (antibody)
heavy: not shown
light: EIVLTQSPATLSLSPGERATLSCRASESVDNYGMSFMNWFQQKPGQPPKLLIHAASNQGSGVPSRFSGSGSGTDFTLTISSLEPEDFAVYFCQQSKEVPYTFGGGTKVEIKRTVAAPSVFIFPPSDEQLKSGTASVVCLLNNFYPREAKVQWKVDNALQSGNSQESVTEQDSKDSTYSLSSTLTLSKADYEKHKVYACEVTHQGLSSPVTKSFNRGEC
notes: also called h1PD-1 mAb 7(1.2) IgG1 (AA)

- IC50 (read off the curve) [10]: ~0.01 ug/test
- IC50 [17]: 519 nM
- PD-1 binding on CD4+ and CD8+ T cells (% bound, in vivo) [1]: ≥ 80%
- EC50 [18]: 1210 nM
- IC50 (read off the curve) [11]: ~0.02 ug/test
- Kd [2]: 4.6 nM
- Kd [13]: 1.5 nM
- IC50 [19]: 1040 nM
- EC50 (read off the curve) [16]: ~0.1 µg/mL
B7: hPD-1 mAb 7 (1.2) IgG4 (P) (antibody)
heavy: not shown
light: B6 light
notes: also called MGD012
